We go through seven sequences from the supplement of paper PMC11246515.

± gives the standard deviation of the averaged measurements.

The data set can be described thus: total protein half-life in vivo (active degradation + dilution); higher = more stable protein.
Setting [1] is: E. coli NCM3722 delta-clpP delta-lon delta-hslV, growth: N-lim chemostat, doubling time 6 h.
The mark [2] stands for this setting: E. coli NCM3722 delta-clpP, growth: N-lim chemostat, doubling time 6 h.
Setting [3] is: E. coli NCM3722 delta-hslV, growth: N-lim chemostat, doubling time 6 h.
The mark [4] stands for this setting: E. coli NCM3722 delta-lon, growth: N-lim chemostat, doubling time 6 h.
Setting [5] is: wild type E. coli NCM3722, growth: C-lim chemostat, doubling time 3 h.
Setting [6] is: wild type E. coli NCM3722, growth: C-lim chemostat, doubling time 12 h.
Where [7] appears, read: wild type E. coli NCM3722, growth: N-lim chemostat, doubling time 6 h.
Where [8] appears, read: wild type E. coli NCM3722, growth: N-lim chemostat, doubling time 12 h.
The mark [9] stands for this setting: wild type E. coli NCM3722, growth: P-lim chemostat, doubling time 12 h.
Setting [10] is: E. coli NCM3722 delta-smpB, growth: N-lim chemostat, doubling time 6 h.
Where [11] appears, read: wild type E. coli NCM3722, growth: C-lim chemostat, doubling time 6 h.
[12] abbreviates: wild type E. coli NCM3722, growth: P-lim chemostat, doubling time 6 h.

For the sequence “MSNKMTGLVKWFNADKGFGFISPVDGSKDVFVHFSAIQNDNYRTLFEGQKVTFSIESGAKGPAAANVIITD”, the “total protein half-life in vivo” value amounted to 0.427 ± 0.069 h under setting [1]; 0.486 ± 0.036 h under setting [2]; 0.454 h under setting [3]; 0.617 ± 0.26 h under setting [4]; 2.03 h under setting [5]; 0.407 h under setting [6]. Besides, the “total protein half-life in vivo” value under setting [7] was determined as 0.537 h, the “total protein half-life in vivo” value under setting [8] was found to be 0.434 h and the “total protein half-life in vivo” value under setting [9] was 1.16 h.

In the case of “MYPVDLHMHTVASTHAYSTLSDYIAQAKQKGIKLFAITDHGPDMEDAPHHWHFINMRIWPRVVDGVGILRGIEANIKNVDGEIDCSGKMFDSLDLIIAGFHEPVFAPHDKATNTQAMIATIASGNVHIISHPGNPKYEIDVKAVAEAAAKHQVALEINNSSFLHSRKGSEDNCREVAAAVRDAGGWVALGSDSHTAFTMGEFEECLKILDAVDFPPERILNVSPRRLLNFLESRGMAPIAEFADL”, the “total protein half-life in vivo” value by setting is: under setting [1], 4.97 ± 0.41 h; under setting [2], 4.01 ± 0.17 h; under setting [3], 3.945 ± 0.0077 h; under setting [4], 4.67 ± 0.18 h; under setting [10], 3.925 ± 0.00062 h; under setting [5], 3.11 ± 0.53 h. Also, the “total protein half-life in vivo” value under setting [11] worked out at 4.99 ± 0.23 h; the “total protein half-life in vivo” value under setting [6] came to 9.55 ± 1.1 h; the “total protein half-life in vivo” value under setting [7] stood at 4.04 ± 0.4 h; the “total protein half-life in vivo” value under setting [8] stood at 6.47 ± 0.46 h; the “total protein half-life in vivo” value under setting [12] came out at 5.73 ± 0.19 h; the “total protein half-life in vivo” value under setting [9] turned out to be 11.9 ± 0.49 h.

“MESIEQQLTELRTTLRHHEYLYHVMDAPEIPDAEYDRLMRELRELETKHPELITPDSPTQRVGAAPLAAFSQIRHEVPMLSLDNVFDEESFLAFNKRVQDRLKNNEKVTWCCELKLDGLAVSILYENGVLVSAATRGDGTTGEDITSNVRTIRAIPLKLHGENIPARLEVRGEVFLPQAGFEKINEDARRTGGKVFANPRNAAAGSLRQLDPRITAKRPLTFFCYGVGVLEGGELPDTHLGRLLQFKKWGLPVSDRVTLCESAEEVLAFYHKVEEDRPTLGFDIDGVVIKVNSLAQQEQLGFVARAPRWAVAFKFPAQEQMTFVRDVEFQVGRTGAITPVARLEPVHVAGVLVSNATLHNADEIERLGLRIGDKVVIRRAGDVIPQVVNVVLSERPEDTREVVFPTHCPVCGSDVERVEGEAVARCTGGLICGAQRKESLKHFVSRRAMDVDGMGDKIIDQLVEKEYVHTPADLFKLTAGKLTGLERMGPKSAQNVVNALEKAKETTFARFLYALGIREVGEATAAGLAAYFGTLEALEAASIEELQKVPDVGIVVASHVHNFFAEESNRNVISELLAEGVHWPAPIVINAEEIDSPFAGKTVVLTGSLSQMSRDDAKARLVELGAKVAGSVSKKTDLVIAGEAAGSKLAKAQELGIEVIDEAEMLRLLGS”: the “total protein half-life in vivo” value turned out to be 6.33 ± 0.46 h under setting [1]; 5.67 ± 0.88 h under setting [2]; 5 ± 0.61 h under setting [3]; 5.11 ± 0.22 h under setting [4]; 4.28 ± 0.047 h under setting [10]; 2.8 ± 0.23 h under setting [5]. The “total protein half-life in vivo” value came to 5.68 ± 1.1 h under setting [11]; 9.65 ± 0.5 h under setting [6]; 4.64 ± 0.15 h under setting [7]; 8.04 ± 0.3 h under setting [8]; 4.92 ± 0.57 h under setting [12]; 8.66 ± 0.66 h under setting [9].

“MGKHHWKIEKQPEWYVKAVRKTIAALPSGYAEAADWLDVTENALFNRLRADGDQIFPLGWAMVLQRAGGTHFIADAVAQSANGVFVSLPDVEDVDNADINQRLLEVIEQIGSYSKQIRSAIEDGVVEPHEKTAINDELYLSISKLQEHAALVYKIFCISESNDARECAAPGVVASIASGCGETNA”: the “total protein half-life in vivo” value under setting [1] stood at 2.93 ± 0.6 h.

“MLCVKNVSLRLPESRLLTNVNFTVDKGDIVTLMGPSGCGKSTLFSWMIGALAEQFSCTGELWLNEQRIDILPTAQRQIGILFQDALLFDQFSVGQNLLLALPATLKGNARRNAVNDALERSGLEGAFHQDPATLSGGQRARVALLRALLAQPKALLLDEPFSRLDVALRDNFRQWVFSEVRALAIPVVQVTHDLQDVPADSSVLDMAQWSENYNKLR”: the “total protein half-life in vivo” value came out at 6.284 ± 0.01 h under setting [1]; 5.73 ± 0.066 h under setting [2]; 6.47 ± 0.07 h under setting [3]; 6.28 ± 0.58 h under setting [4]; 5.27 ± 0.077 h under setting [10]; 3.11 ± 0.35 h under setting [5]. The “total protein half-life in vivo” value under setting [11] came out at 6.13 ± 0.53 h; the “total protein half-life in vivo” value under setting [6] stood at 10.8 ± 2.7 h; the “total protein half-life in vivo” value under setting [7] came out at 6.45 ± 0.98 h; the “total protein half-life in vivo” value under setting [8] was 12.7 ± 0.24 h; the “total protein half-life in vivo” value under setting [12] turned out to be 5.99 ± 0.28 h; the “total protein half-life in vivo” value under setting [9] is 13.7 ± 0.89 h.

With “MQNKLASGARLGRQALLFPLCLVLYEFSTYIGNDMIQPGMLAVVEQYQAGIDWVPTSMTAYLAGGMFLQWLLGPLSDRIGRRPVMLAGVVWFIVTCLAILLAQNIEQFTLLRFLQGISLCFIGAVGYAAIQESFEEAVCIKITALMANVALIAPLLGPLVGAAWIHVLPWEGMFVLFAALAAISFFGLQRAMPETATRIGEKLSLKELGRDYKLVLKNGRFVAGALALGFVSLPLLAWIAQSPIIIITGEQLSSYEYGLLQVPIFGALIAGNLLLARLTSRRTVRSLIIMGGWPIMIGLLVAAAATVISSHAYLWMTAGLSIYAFGIGLANAGLVRLTLFASDMSKGTVSAAMGMLQMLIFTVGIEISKHAWLNGGNGLFNLFNLVNGILWLSLMVIFLKDKQMGNSHEG [P0AEY8]”, the “total protein half-life in vivo” value was 3.11 h under setting [5], 5.65 ± 0.22 h under setting [12] and 11 ± 2.6 h under setting [9].

As for “MPAENIVEVHHLKKSVGQGEHELSILTGVELVVKRGETIALVGESGSGKSTLLAILAGLDDGSSGEVSLVGQPLHNMDEEARAKLRAKHVGFVFQSFMLIPTLNALENVELPALLRGESSAESRNGAKALLEQLGLGKRLDHLPAQLSGGEQQRVALARAFNGRPDVLFADEPTGNLDRQTGDKIADLLFSLNREHGTTLIMVTHDLQLAARCDRCLRLVNGQLQEEA [P0A9T8]”, the “total protein half-life in vivo” value amounted to 6.26 h under setting [1]; 6.68 h under setting [2]; 5.9 h under setting [3]; 5.39 ± 0.17 h under setting [10]; 3.23 ± 0.07 h under setting [5]; 5.51 ± 0.64 h under setting [11]. For the same sequence, the “total protein half-life in vivo” value runs as follows: under setting [6], 11.2 ± 1.8 h; under setting [7], 7.11 h; under setting [8], 11.4 ± 0.56 h; under setting [12], 5.46 ± 0.41 h; under setting [9], 11.6 h.
